Patent US20240016902A1

Legend:
[1] = molecular target: SPTAN1 (accession Q13813-3) (UniProt Q13813); assay: Flag-IP from HepG2 cell lysate, mass spectrometry of eluate
POTEE = POTEE (UniProt Q6S8J3); assay: as above
WDR77 [2] = molecular target: WDR77 (UniProt Q9BQA1); assay: as above
HSPA8 [3] = molecular target: HSPA8 (UniProt P11142); assay: as above
TUBB [4] = molecular target: TUBB (UniProt P07437); assay: as above
TUBB4B [5] = molecular target: TUBB4B (UniProt P68371); assay: as above
FLNA [6] = molecular target: FLNA (UniProt P21333); assay: as above
SPTBN1 [7] = molecular target: SPTBN1 (UniProt Q01082); assay: as above
PRMT5 [8] = molecular target: PRMT5 (UniProt O14744); assay: as above
TUBA1C [9] = molecular target: TUBA1C (UniProt Q9BQE3); assay: as above
TUBA1B [10] = molecular target: TUBA1B (UniProt P68363); assay: as above
EIF4B [11] = molecular target: EIF4B (UniProt P23588); assay: Flag-IP from HeLa cell lysate, mass spectrometry of eluate
KRT1 = KRT1 (UniProt P04264); assay: as above
HSPA8 [12] = molecular target: HSPA8 (UniProt P11142); assay: as above
TUBB [13] = molecular target: TUBB (UniProt P07437); assay: as above
TUBB4B [14] = molecular target: TUBB4B (UniProt P68371); assay: as above
FLNA [15] = molecular target: FLNA (UniProt P21333); assay: as above
SPTBN1 [16] = molecular target: SPTBN1 (UniProt Q01082); assay: as above
[17] = molecular target: SPTAN1 (accession Q13813-2) (UniProt Q13813); assay: as above
PRMT5 [18] = molecular target: PRMT5 (UniProt O14744); assay: as above
TUBA1C [19] = molecular target: TUBA1C (UniProt Q9BQE3); assay: as above
TUBA1B [20] = molecular target: TUBA1B (UniProt P68363); assay: as above
HSPA1A = HSPA1A (UniProt P0DMV8); assay: as above
VIL1 = VIL1 (UniProt P09327); assay: Flag-IP from HepG2 cell lysate, mass spectrometry of eluate
EIF4B [21] = molecular target: EIF4B (UniProt P23588); assay: as above
DBN1 = DBN1 (UniProt Q16643); assay: as above
[22] = molecular target: SPTAN1 (accession Q13813-2) (UniProt Q13813); assay: as above
[23] = molecular target: SPTAN1 (accession Q13813) (Homo sapiens (Human)) (UniProt Q13813); assay: Flag-IP from HeLa cell lysate, mass spectrometry of eluate
WDR77 [24] = molecular target: WDR77 (UniProt Q9BQA1); assay: as above
TUBA1A = TUBA1A (UniProt Q71U36); assay: as above

HSPA8, sequence (P11142 2-646 limits assumed): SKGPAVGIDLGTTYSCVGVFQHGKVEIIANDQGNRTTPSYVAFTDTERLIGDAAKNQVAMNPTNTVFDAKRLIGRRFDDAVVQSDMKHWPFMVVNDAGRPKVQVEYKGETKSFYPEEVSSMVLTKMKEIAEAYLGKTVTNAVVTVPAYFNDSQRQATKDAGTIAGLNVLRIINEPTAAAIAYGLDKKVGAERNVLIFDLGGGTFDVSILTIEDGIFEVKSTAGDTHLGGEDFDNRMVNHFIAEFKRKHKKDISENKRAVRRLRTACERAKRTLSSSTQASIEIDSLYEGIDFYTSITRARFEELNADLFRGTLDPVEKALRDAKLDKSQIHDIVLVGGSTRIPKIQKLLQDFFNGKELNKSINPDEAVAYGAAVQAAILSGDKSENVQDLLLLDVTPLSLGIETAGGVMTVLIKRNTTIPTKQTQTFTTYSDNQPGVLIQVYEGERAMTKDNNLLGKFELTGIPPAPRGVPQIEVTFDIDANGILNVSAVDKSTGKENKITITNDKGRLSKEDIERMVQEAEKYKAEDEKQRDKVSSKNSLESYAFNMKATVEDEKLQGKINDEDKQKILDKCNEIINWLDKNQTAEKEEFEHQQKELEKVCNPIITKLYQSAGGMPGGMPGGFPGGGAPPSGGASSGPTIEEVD
TUBA1B, sequence (P68363 whole entry): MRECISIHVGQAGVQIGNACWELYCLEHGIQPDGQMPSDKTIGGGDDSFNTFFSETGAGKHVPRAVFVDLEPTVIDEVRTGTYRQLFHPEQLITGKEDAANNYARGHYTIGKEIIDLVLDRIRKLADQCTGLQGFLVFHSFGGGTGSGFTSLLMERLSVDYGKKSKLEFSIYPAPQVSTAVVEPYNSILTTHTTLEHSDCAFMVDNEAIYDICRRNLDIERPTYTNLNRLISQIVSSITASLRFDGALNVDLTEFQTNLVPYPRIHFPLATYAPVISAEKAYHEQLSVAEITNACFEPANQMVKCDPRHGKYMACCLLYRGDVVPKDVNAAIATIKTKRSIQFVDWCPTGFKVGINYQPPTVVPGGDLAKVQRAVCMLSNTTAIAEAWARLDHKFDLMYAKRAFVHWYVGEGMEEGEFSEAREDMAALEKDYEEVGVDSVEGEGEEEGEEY
TUBB, sequence (P07437 whole entry): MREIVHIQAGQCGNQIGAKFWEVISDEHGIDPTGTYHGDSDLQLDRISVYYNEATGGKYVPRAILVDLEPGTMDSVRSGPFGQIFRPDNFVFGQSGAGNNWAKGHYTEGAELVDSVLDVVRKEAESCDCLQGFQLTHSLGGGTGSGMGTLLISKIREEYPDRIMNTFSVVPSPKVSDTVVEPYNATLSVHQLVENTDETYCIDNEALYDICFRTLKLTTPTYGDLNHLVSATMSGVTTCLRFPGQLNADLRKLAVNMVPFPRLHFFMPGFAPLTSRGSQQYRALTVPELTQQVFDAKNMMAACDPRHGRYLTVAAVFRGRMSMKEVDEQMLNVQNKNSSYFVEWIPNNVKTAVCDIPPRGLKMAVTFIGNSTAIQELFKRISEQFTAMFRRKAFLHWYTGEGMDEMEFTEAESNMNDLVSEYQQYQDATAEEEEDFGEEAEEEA
HSPA1A, sequence (P0DMV8 2-641 limits assumed): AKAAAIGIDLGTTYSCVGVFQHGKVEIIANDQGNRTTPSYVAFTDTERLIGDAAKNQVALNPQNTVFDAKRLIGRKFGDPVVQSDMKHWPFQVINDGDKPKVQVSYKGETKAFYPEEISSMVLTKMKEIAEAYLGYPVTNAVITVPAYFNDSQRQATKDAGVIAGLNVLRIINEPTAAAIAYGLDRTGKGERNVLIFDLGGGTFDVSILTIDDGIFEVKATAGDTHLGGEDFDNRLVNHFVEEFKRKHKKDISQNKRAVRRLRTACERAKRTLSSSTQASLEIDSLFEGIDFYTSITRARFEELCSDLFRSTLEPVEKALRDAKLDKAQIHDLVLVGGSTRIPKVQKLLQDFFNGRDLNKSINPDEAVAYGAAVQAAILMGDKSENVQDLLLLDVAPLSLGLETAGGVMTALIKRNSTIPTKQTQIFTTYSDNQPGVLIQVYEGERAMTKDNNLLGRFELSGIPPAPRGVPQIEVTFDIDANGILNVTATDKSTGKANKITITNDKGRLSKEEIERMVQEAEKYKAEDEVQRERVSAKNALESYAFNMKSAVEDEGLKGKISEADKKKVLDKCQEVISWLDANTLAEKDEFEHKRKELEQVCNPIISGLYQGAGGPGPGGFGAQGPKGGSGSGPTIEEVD
PRMT5, sequence (O14744 2-637 limits assumed): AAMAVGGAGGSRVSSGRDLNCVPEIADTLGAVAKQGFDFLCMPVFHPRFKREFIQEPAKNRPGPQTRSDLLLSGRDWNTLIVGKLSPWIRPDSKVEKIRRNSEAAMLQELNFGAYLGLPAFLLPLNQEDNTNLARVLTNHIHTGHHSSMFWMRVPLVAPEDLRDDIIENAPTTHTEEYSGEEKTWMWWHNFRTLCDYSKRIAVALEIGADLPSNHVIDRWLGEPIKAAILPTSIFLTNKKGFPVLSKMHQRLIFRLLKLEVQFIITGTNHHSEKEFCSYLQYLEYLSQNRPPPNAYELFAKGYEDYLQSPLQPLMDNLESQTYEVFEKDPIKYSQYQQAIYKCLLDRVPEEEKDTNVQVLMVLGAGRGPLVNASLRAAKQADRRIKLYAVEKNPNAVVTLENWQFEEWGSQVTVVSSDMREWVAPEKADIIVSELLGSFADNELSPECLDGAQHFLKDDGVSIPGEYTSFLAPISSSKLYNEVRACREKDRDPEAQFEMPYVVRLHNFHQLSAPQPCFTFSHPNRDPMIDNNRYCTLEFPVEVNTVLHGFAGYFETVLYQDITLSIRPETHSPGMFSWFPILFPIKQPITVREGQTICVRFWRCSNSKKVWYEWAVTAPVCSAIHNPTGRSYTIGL
Flag-AtRDR1 (Arabidopsis thaliana RNA-dependent RNA polymerase 1 with Flag tag), sequence (Q9LQV2 whole entry): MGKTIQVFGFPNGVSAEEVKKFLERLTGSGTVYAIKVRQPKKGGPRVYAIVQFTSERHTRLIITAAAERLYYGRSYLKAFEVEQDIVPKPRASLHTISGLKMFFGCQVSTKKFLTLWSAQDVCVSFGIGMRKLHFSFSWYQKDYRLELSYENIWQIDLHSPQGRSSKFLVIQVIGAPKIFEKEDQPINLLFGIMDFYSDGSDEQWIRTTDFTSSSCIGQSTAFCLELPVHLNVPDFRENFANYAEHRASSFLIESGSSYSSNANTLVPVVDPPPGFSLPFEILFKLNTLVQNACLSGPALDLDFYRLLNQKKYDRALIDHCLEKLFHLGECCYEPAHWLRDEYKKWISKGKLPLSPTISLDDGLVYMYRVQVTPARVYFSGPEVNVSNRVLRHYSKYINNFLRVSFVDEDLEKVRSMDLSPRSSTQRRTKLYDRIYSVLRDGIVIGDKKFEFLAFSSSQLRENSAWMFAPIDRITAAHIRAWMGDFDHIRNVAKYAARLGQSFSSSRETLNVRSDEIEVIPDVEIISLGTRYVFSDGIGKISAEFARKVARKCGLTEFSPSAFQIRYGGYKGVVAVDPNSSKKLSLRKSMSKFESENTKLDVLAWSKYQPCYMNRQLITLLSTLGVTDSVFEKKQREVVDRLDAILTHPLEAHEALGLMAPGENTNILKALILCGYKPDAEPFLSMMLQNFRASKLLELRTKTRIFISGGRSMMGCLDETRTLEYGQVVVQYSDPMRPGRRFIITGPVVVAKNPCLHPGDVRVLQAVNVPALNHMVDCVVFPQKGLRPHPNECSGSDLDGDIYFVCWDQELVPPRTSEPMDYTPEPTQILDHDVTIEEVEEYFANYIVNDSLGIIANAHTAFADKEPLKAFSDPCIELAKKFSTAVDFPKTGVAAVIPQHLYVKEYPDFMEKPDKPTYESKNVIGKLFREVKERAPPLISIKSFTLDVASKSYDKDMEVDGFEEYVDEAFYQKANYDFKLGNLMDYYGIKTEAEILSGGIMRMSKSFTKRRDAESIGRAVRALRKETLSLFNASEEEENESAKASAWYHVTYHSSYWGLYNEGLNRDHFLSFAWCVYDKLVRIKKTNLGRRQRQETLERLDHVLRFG
EIF4B, sequence (P23588 whole entry): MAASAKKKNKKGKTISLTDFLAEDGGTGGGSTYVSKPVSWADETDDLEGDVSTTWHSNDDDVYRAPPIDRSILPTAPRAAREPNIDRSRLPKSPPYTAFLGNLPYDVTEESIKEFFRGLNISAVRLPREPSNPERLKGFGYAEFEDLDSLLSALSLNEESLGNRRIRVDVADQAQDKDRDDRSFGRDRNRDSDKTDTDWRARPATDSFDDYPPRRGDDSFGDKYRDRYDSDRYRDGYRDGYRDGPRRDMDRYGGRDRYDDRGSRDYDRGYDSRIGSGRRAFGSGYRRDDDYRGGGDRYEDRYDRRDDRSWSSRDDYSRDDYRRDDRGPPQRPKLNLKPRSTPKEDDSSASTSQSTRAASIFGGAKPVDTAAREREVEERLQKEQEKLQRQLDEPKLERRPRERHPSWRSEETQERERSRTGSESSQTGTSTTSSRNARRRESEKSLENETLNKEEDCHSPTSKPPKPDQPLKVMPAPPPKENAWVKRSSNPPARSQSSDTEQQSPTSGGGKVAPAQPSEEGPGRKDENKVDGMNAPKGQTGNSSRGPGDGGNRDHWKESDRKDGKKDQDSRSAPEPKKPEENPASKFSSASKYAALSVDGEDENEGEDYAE
TUBB4B, sequence (P68371 whole entry): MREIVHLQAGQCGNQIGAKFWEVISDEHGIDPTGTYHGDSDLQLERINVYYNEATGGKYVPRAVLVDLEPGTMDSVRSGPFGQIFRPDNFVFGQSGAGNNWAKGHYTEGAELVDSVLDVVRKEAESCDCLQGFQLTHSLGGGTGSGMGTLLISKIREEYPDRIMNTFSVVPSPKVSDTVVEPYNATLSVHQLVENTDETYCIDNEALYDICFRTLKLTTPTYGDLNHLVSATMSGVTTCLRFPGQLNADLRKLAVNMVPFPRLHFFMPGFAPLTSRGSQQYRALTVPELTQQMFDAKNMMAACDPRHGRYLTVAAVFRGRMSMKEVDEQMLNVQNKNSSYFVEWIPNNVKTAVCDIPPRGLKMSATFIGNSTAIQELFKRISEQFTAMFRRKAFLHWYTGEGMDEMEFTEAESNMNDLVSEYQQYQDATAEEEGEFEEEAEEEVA

Flag-OsRDR1 (rice, Oryza sativa, RNA-dependent RNA polymerase 1 with Flag tag) (from UniProt Q0DXS3 1-740) (enzyme)
Coverage (%) [1]: 47%
Length of peptide [1]: 85
Coverage (%) (POTEE): 11%
Length of peptide (POTEE): 9
Coverage (%) (WDR77 [2]): 64%
Length of peptide (WDR77 [2]): 15
Coverage (%) (HSPA8 [3]): 68%
Length of peptide (HSPA8 [3]): 34
Coverage (%) (TUBB [4]): 66%
Length of peptide (TUBB [4]): 24
Coverage (%) (TUBB4B [5]): 66%
Coverage (%) (FLNA [6]): 32%
Length of peptide (FLNA [6]): 50
Coverage (%) (SPTBN1 [7]): 48%
Length of peptide (SPTBN1 [7]): 81
Coverage (%) (PRMT5 [8]): 61%
Length of peptide (PRMT5 [8]): 31
Coverage (%) (TUBA1C [9]): 55%
Length of peptide (TUBA1C [9]): 17
Coverage (%) (TUBA1B [10]): 62%
Length of peptide (TUBA1B [10]): 19
Coverage (%) (EIF4B [11]): 26%
Length of peptide (EIF4B [11]): 9
Coverage (%) (KRT1): 32%
Length of peptide (KRT1): 14
Coverage (%) (HSPA8 [12]): 36%
Length of peptide (HSPA8 [12]): 17
Coverage (%) (TUBB [13]): 42%
Length of peptide (TUBB [13]): 15
Coverage (%) (TUBB4B [14]): 38%
Length of peptide (TUBB4B [14]): 14
Coverage (%) (FLNA [15]): 12%
Length of peptide (FLNA [15]): 20
Coverage (%) (SPTBN1 [16]): 10%
Length of peptide (SPTBN1 [16]): 16
Coverage (%) [17]: 9%
Length of peptide [17]: 16
Coverage (%) (PRMT5 [18]): 37%
Length of peptide (PRMT5 [18]): 15
Coverage (%) (TUBA1C [19]): 35%
Length of peptide (TUBA1C [19]): 11
Coverage (%) (TUBA1B [20]): 40%
Length of peptide (TUBA1B [20]): 12
Coverage (%) (HSPA1A): 26%
Length of peptide (HSPA1A): 13

Flag-AtRDR1 (Arabidopsis thaliana RNA-dependent RNA polymerase 1 with Flag tag) (from UniProt Q9LQV2 1-1107) (enzyme)
Coverage (%) (VIL1): 46%
Length of peptide (VIL1): 26
Coverage (%) (EIF4B [21]): 37%
Length of peptide (EIF4B [21]): 17
Coverage (%) (DBN1): 36%
Coverage (%) (POTEE): 9%
Length of peptide (POTEE): 7
Coverage (%) (WDR77 [2]): 66%
Coverage (%) (HSPA8 [3]): 56%
Length of peptide (HSPA8 [3]): 27
Coverage (%) (FLNA [6]): 27%
Length of peptide (FLNA [6]): 38
Coverage (%) (SPTBN1 [7]): 45%
Length of peptide (SPTBN1 [7]): 72
Coverage (%) [22]: 44%
Length of peptide [22]: 83
Coverage (%) (PRMT5 [8]): 59%
Length of peptide (PRMT5 [8]): 31
Coverage (%) [23]: 16%
Length of peptide [23]: 29
Coverage (%) (EIF4B [11]): 33%
Length of peptide (EIF4B [11]): 20
Coverage (%) (WDR77 [24]): 44%
Length of peptide (WDR77 [24]): 10
Coverage (%) (TUBB [13]): 29%
Length of peptide (TUBB [13]): 10
Coverage (%) (TUBB4B [14]): 25%
Length of peptide (TUBB4B [14]): 9
Coverage (%) (FLNA [15]): 20%
Length of peptide (FLNA [15]): 36
Coverage (%) (SPTBN1 [16]): 12%
Coverage (%) (PRMT5 [18]): 29%
Length of peptide (PRMT5 [18]): 12
Coverage (%) (TUBA1C [19]): 31%
Length of peptide (TUBA1C [19]): 10
Coverage (%) (TUBA1A): 36%
Coverage (%) (HSPA1A): 17%
Length of peptide (HSPA1A): 10
